We go through four molecules from PMC12205877.

The target in data set [1] is T1, TaBZR2 (Triticum aestivum (ZM1860), UniProt A0A3B6FJ07 1-354).
T1 sequence: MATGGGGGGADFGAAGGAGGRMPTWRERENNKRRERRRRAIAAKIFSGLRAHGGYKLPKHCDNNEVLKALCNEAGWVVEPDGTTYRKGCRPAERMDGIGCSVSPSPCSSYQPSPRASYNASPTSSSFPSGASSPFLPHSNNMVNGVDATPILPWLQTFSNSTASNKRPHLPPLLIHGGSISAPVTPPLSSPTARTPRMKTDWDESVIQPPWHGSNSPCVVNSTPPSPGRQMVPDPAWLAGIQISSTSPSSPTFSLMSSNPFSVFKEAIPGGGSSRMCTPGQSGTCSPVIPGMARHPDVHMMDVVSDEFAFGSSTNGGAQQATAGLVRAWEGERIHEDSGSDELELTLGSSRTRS
In words: EMSA.

Data set [2] addresses T1, TaBZR2. In words: competition.
Data set [3] addresses T1, TaBZR2. In words: competition. This is another data set of the same source.

B1: TaHSP21 promoter E-box probe (WT) (dsDNA)
DNA 1: AAGCACATATGTGTTGAAACAAGTGCAAAATGACAAGTGAGGGC
DNA 2: GCCCTCACTTGTCATTTTGCACTTGTTTCAACACATATGTGCTT
Consider B1, for which, in data set [1], the binding result is on record as “binds”.

B2: TaHSFb2a promoter E-box probe (WT) (dsDNA)
DNA 1: CCGTTTCTAGAAACCTCGCCACGTGGCCGACTAGAAAGGATCG
DNA 2: CGATCCTTTCTAGTCGGCCACGTGGCGAGGTTTCTAGAAACGG
Consider B2, for which, in data set [1], the binding result is listed as “binds”.

B3: TaHSFb2a promoter mutated E-box probe (dsDNA)
DNA 1: CCGTTTCTAGAAACCTCGCTGTACAGCCGACTAGAAAGGATCG
DNA 2: CGATCCTTTCTAGTCGGCTGTACAGCGAGGTTTCTAGAAACGG
As for B3, the binding result in data set [2] is “no binding”.

B4: TaHSP21 promoter mutated E-box probe (dsDNA)
DNA 1: AAGCATGCGCATGTTGAAATGGACACAAAATGATGGACAAGGGC
DNA 2: GCCCTTGTCCATCATTTTGTGTCCATTTCAACATGCGCATGCTT
As for B4, the binding result in data set [3] is listed as “no binding”.
